Test results as given in patent US6942963 (MIT, dated 2005).
Non-standard residues stand in square brackets, D forms with d.

Target: β-amyloid peptide βAP1-42
Experiment: cell-based or functional assay

Sequence of β-amyloid peptide βAP1-42 (peptide, as listed by the source): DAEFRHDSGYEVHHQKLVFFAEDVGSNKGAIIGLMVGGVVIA

For H-[dT][dP][dI][dR][dT][dP][dA][dP][dA]-OH [decoy peptide DP16 (+NH3.T.P.I.R+.T.P.A.P.A.COO-)], the “decrease in aggregation rate of βAP1-42, light scattering at 500 nm, DP16 at 1:1 molar ratio” value was roughly 50%.
